{"source": "paper PMC8835810", "target": "E117K mutant of rabbit muscle pyruvate kinase (rabbit)", "assay": "crystal structure; E117K mutant at 7 mg/mL in 50 mM Tris pH 7.0 with 1.0 mM ATP, 1.0 mM MgCl2, 0.2 mM oxalate; hanging drop; 0.2 M magnesium acetate, 0.1 M sodium cacodylate pH 6.5, 18% w/v PEG 8000; space group P212121, four copies in the asymmetric unit", "data": [{"substance": "E117K mutant of rabbit muscle pyruvate kinase (enzyme)", "values": [{"measurement": "stoichiometry N", "value": 4}]}]}
